# Measured values from US11020478B2, “Methods for modulating angiogenesis of cancers refractory to anti-VEGF treatment” (INIS BIOTECH LLC, priority 2013, dated 2021).
# Legend:
# [1] = system: HUVEC; assay: Binding of 488-Gal1 to ECs (flow cytometry); format: cell-based, human
# [2] = system: HUVEC tube formation; assay: Capillary-like tube formation on Matrigel (HUVEC); format: cell-based, human; settings: for tube formation induced by Gal1 / inhibitory activity in Gal1-induced formation of tubular structures (tubulogenesis): HUVEC
# Method: (§1) Cells were incubated at 37° C. for periods ranging from 0 to 24 h and were visualized by phase-contrast microscopy. Capillary-like tubular structures were scored by counting the number of tubules (closed areas) per well in a phase-contrast microscope (Nikon E-100). For migration assays, ECs (4×10^4/well) transfected or not with specific siRNA were resuspended in M199 medium supplemented with 1% FCS. Cells were placed into the top chamber of the insert while the bottom well was filled with Gal1 or VEGF-A in the absence or presence of the above mentioned stimuli. After 24 hours, inserts were stained with crystal violet (Sigma) and analyzed in an inverted microscope. For each filter, 4 images were obtained and cells were counted with ImageJ software v1.46r (NIH). […] After 24 hours, cells were incubated in the presence of 0.8 μCi [^3H]-thymidine (NEN Dupont). Cells were then harvested and radioactivity was measured in a 1414 Liquid Scintillation Counter (Perkin Elmer). Tumor-associated ECs were identified by flow cytometry using Alexa Fluor 647-conjugated anti-CD34 (RAM34; eBioscience) and FITC-conjugated anti-CD45 (J33; Immunotech). Microvessel density (MVD) was determined by counting the number of CD31^+ microvessels present in 10 mm^2. Ten random 400× fields were counted.
# [3] = system: ECs; assay: EC proliferation assay ([3H]-thymidine); format: cell-based, human
# Method: as §1
# [4] = system: HUVEC migration; assay: EC migration assay (HUVEC); format: cell-based, human; parameters: inhibitory activity in Gal1-induced cell migration: dose or concentration left out as unconfirmed
# Method: as §1
# [5] = target: T1, rhVEGFR2 (Homo sapiens, UniProt P35968); assay: FRET-based fluorescence spectroscopy, Gal1 binding to rhVEGFR2; settings: 594-Gal1 added to 0.5 μM 488-VEGFR2, 25° C.
# T1 construct: the recombinant extracellular domain of VEGFR2 expressed in human cells (Sino Biological Inc.); purchased Sino Biological Inc; host or cells: human cells
# Method: Association between rhVEGFR2 and Gal1 was studied by a FRET-based fluorescence spectroscopy approach. NHS-activated fluorophores DyLight 488 (DL488, FRET donor) and DyLight 594 (DL594, FRET acceptor) were purchased from Thermo Scientific. For labeling, 4 mg rhGal1 and 100 μg of the recombinant extracellular domain of VEGFR2 expressed in human cells (Sino Biological Inc.) were modified with 200 μg of DL594 and 50 μg of DL488, respectively. Labeling was carried out in PBS buffer in the presence of 5 mM dithiothreitol (DTT) for 1 hour at room temperature following manufacturer's recommended protocol (Thermo Scientific). Labeled rhGal1 was purified by size exclusion chromatography using a Superdex-75 column (GE Life Sciences) generated in PBS containing 5 mM DTT and concentrated up to 200 μM using Centricon tubes (Millipore). Labeled VEGFR2 was dialyzed for 48 hours against PBS using a homemade microdialyzer. Fluorescence spectra were measured in a JASCO FP-6500 spectrofluorometer endowed with a Peltier effect thermostatized cell holder. A 4×4 mm fluorescence cell was employed. All binding assays were carried out at 25° C. in PBS buffer with the addition of 5 mM DTT. Excitation wavelength was set to 493 nm, with a bandpass of 1 nm. Emission spectra were recorded from 500 to 680 nm, using a bandpass of 3 nm. […] Fluorescence intensity at 518 nm was corrected for dilution and inner filter effects.
# [6] = target: T2, human recombinant Gal-1 (Homo sapiens, UniProt P09382); assay: Affinity assay (SPR) of fully human anti-Gal1 monoclonal antibodies; format: binding; settings: for Ka: kinetics model of interaction adjustment 1:1, BIAEvaluation 3.0
# T2 construct: made in house
# Source text: Also conducted was an affinity assay (SPR) for the newly developed fully human anti-Gal1 monoclonal antibodies. In order to characterize affinities of the new anti-Gal-1 monoclonal antibodies, dose-response (RU) curves were collected of the interactions between the monoclonal antibodies and human recombinant Gal-1 (FIG. 14A and FIG. 14B).
# By using the BIAEvaluation 3.0 software in a kinetics model of interaction adjustment 1:1, kinetic parameters, constants of dissociation (Kd) and affinity (Ka) were calculated.
# [7] = system: Gal1 peptides with the consensus motif MAADGDF; assay: PEPperMAP Conformational Epitope Mapping Analysis; format: binding; settings: antibody 10 μg/mL; all three peptide lengths
# Method: Epitope mapping: In order to determine the specific conformational epitopes recognized by the new anti-Gal1 antibodies, a PEPperMAP® Conformational Epitope Mapping Analysis was performed.
# T2 sequence (P09382 whole entry): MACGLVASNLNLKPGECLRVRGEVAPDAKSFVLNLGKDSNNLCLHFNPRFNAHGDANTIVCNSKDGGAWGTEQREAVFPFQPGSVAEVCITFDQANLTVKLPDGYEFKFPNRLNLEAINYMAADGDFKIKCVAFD
# T1 sequence (P35968 20-764 limits assumed): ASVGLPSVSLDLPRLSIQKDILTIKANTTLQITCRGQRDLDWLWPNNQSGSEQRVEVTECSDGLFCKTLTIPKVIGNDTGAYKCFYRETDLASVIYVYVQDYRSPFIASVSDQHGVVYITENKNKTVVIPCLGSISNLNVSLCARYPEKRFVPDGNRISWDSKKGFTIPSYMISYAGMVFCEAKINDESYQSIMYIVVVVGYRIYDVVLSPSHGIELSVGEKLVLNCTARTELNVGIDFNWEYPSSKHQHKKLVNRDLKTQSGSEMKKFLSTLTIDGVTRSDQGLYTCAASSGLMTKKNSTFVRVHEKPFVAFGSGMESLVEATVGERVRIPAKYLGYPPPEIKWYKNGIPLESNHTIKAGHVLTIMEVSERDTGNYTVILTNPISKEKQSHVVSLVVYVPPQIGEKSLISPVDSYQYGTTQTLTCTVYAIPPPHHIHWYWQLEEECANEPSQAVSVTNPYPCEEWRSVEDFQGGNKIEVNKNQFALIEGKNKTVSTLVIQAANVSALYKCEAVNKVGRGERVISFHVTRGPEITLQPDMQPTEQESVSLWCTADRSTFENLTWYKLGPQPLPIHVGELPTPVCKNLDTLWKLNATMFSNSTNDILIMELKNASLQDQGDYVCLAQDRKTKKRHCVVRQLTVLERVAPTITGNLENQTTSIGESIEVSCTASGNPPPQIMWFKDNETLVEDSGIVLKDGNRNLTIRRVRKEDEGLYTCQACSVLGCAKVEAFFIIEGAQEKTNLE
molecule,measurement,setting,value
CC(=O)N[C@H]1[C@@H](OCc2ccccc2)O[C@H](CO)[C@H](O)[C@@H]1O [benzyl-α-GalNAc],Gal1 binding to ECs in presence of inhibitor,[1],only partially inhibitory
"OC[C@H]1O[C@@H](O[C@H]2[C@H](O)[C@@H](O)C(O)O[C@@H]2CO)[C@H](O)[C@@H](O)[C@H]1O (stereo partly drawn) [lactose, reference compound]",tube formation induced by Gal1,[2],almost completely prevented
same,EC proliferation induced by Gal1,[3],almost completely prevented
same,EC migration induced by Gal1,[4],almost completely prevented
"O[C@H]1[C@H]2[C@H](O)CCCN2C[C@H]1O [swainsonine, reference compound]",tube formation induced by Gal1,[2],almost completely prevented
same,EC proliferation induced by Gal1,[3],almost completely prevented
same,EC migration induced by Gal1,[4],almost completely prevented
same,Gal1 binding to ECs in presence of inhibitor,[1],almost completely abrogated
"Gal1: recombinant Galectin-1, glycan-binding protein (SEQ ID NO: 2)",dissociation constant (Kd),[5],low micromolar range
Gal1^N46D: Gal1 mutant lacking carbohydrate-binding activity [reference compound],impact on EC response,[2],no impact
same,binding to ECs,[1]; any of the concentrations tested,no binding
"Clone 21: fully human anti-Gal1 monoclonal antibody (IgG1) from scFv library; VH SEQ ID NO: 15, VK SEQ ID NO: 19 (antibody, V domains shown, IgG1 format) VH: EVQLLESGGGLVQPGGSLRLSCAASGFTFSSYAMSWVRQAPGKGLEWVSEIGRVGVNTLYADSVKGRFTISRDNSKNTLYLQMNSLRAEDTAVYYCAKKATQFDYWGQGTLVTVSS VL: DIQMTQSPSSLSASVGDRVTITCRASQSISSYLNWYQQKPGKAPKLLIYRASRLQSGVPSRFSGSGSGTDFTLTISSLQPEDFATYYCQQTIGPPDTFGQGTKVEIKR",inhibitory activity in Gal1-induced formation of tubular structures (tubulogenesis),[2],significantly blocked
same,inhibitory activity in Gal1-induced cell migration,[4],significantly blocked
same,interaction with human recombinant Gal1,[6],high specific interactions
same,Ka,[6],649000 M⁻¹
same,binding activity against epitope-like spots formed by adjacent peptides with consensus motif MAADGDF,[7],moderate to high binding activity
"Clone 42: fully human anti-Gal1 monoclonal antibody (IgG1) from scFv library; VH SEQ ID NO: 23, VK SEQ ID NO: 27 (antibody, V domains shown, IgG1 format) VH: EVQLLESGGGLVQPGGSLRLSCAASGFTFSSYAMSWVRQAPGKGLEWVSGISGSGDYTSYADSVKGRFTISRDNSKNTLYLQMNSLRAEDTAVYYCAKGYGAFDYWGQGTLVTVSS VL: DIQMTQSPSSLSASVGDRVTITCRASQSISSYLNWYQQKPGKAPKLLIYGASWLQSGVPSRFSGSGSGTDFTLTISSLQPEDFATYYCQQSANYPSTFGQGTKVEIKR",inhibitory activity in Gal1-induced formation of tubular structures (tubulogenesis),[2],significantly blocked
same,inhibitory activity in Gal1-induced cell migration,[4],significantly blocked
same,interaction with human recombinant Gal1,[6],high specific interactions
same,Ka,[6],7.63e+06 M⁻¹
same,binding activity against epitope-like spots formed by adjacent peptides with consensus motif MAADGDF,[7],higher binding activity
